Common to all, as to test: holdup assay
Holding throughout (parameters): key: below the threshold = too weak to quantify, mostly under pKd 3.1 to 4
Settings in all cases: plain residues with an end cap or a label only (N-terminal biotin on a linker: ttds)

For experiment [1], the target named is T1, APBA3_2, O96018.
T1 sequence (O96018 480-570, limits assumed, looked up): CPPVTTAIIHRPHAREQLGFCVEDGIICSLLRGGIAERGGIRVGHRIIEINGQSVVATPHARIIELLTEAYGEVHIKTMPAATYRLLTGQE

The target in experiment [2] is T2, DVL1, O14640.
T2 sequence (O14640 246-333, limits assumed, looked up): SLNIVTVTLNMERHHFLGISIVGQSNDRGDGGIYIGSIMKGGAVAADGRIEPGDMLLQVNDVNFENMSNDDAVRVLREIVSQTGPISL

Experiment [3] has as its target Inadl_7, Q8NI35.
For experiment [4], the target named is MAGI3_3, Q5TCQ9.
Experiment [5] deals with T3, MPDZ_11, O75970.
T3 sequence (O75970 1720-1817, limits assumed, looked up): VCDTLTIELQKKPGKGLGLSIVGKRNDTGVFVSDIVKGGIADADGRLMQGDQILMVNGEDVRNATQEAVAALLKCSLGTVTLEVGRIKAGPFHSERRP

Experiment [6] has as its target T4, MPDZ_2, O75970.
T4 sequence (O75970 252-347, limits assumed, looked up): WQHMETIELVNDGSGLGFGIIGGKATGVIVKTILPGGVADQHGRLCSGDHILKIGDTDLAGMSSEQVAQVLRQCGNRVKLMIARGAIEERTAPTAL

Experiment [7] deals with T5, MPDZ_3, O75970.
T5 sequence (O75970 372-473, limits assumed, looked up): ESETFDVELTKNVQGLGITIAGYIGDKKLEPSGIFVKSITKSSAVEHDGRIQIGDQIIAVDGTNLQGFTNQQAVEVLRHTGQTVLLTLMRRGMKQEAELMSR

The target of experiment [8] is T6, MPP1, Q00013.
T6 sequence (Q00013 66-162, limits assumed, looked up): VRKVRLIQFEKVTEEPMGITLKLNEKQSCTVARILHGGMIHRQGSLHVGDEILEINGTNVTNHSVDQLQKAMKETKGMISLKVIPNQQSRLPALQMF

In experiment [9] the target is T7, NHERF3_2, Q5T2W1.
T7 sequence (Q5T2W1 129-225, limits assumed, looked up): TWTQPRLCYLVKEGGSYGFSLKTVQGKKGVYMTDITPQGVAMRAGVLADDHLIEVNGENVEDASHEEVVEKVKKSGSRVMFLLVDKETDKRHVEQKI

Experiment [10] has as its target O00233.
Experiment [11] addresses O15021.
Experiment [12] concerns the target T8, PARD6B, Q9BYG5.
T8 sequence (Q9BYG5 152-260, limits assumed, looked up): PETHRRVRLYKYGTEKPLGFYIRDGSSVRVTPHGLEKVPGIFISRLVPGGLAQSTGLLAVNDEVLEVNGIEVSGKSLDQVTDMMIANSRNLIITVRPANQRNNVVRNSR

Experiment [13] deals with T9, PDZD2_6, O15018.
T9 sequence (O15018 2745-2839, limits assumed, looked up): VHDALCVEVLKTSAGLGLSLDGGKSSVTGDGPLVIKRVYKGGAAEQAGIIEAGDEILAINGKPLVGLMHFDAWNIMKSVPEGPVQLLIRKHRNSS

For experiment [14], the target named is T10, PDZD4, Q76G19.
T10 sequence (Q76G19 125-224, limits assumed, looked up): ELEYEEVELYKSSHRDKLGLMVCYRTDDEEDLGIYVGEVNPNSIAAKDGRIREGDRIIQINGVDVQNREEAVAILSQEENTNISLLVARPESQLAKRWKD

Experiment [15] has as its target T11, PDZRN3_2, Q9UPQ7.
T11 sequence (Q9UPQ7 414-513, limits assumed, looked up): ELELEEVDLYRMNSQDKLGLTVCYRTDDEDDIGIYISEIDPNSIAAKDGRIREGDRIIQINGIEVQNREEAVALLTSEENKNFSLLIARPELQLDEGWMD

The target of experiment [16] is Q13009.
Experiment [17] addresses Q96FS4.
Experiment [18] has as its target Q96SB3.
In experiment [19] the target is Q9H190.
The target of experiment [20] is Q9P227.
The target of experiment [21] is T12, RGS12, O14924.
T12 sequence (O14924 17-108, limits assumed, looked up): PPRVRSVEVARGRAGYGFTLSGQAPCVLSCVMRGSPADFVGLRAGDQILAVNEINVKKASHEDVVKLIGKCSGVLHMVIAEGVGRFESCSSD

In experiment [22] the target is SCRIB_4, Q14160.
Experiment [23] has as its target T13, SNTB2, Q13425.
T13 sequence (Q13425 110-208, limits assumed, looked up): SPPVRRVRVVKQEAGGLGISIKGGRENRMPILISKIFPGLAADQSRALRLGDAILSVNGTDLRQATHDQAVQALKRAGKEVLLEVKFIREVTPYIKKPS

The target of experiment [24] is T14, SYNPO2L, Q9H987.
T14 sequence (Q9H987 1-98, limits assumed, looked up): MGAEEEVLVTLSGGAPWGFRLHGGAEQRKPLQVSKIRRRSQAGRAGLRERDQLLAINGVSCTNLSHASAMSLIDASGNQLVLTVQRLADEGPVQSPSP

SCRIB_4, Q14160, sequence (Q14160 1095-1204): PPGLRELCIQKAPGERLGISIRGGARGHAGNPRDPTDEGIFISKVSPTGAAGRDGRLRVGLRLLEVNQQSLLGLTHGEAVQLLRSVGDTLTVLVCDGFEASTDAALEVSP
Inadl_7, Q8NI35, sequence (Q8NI35 1219-1332): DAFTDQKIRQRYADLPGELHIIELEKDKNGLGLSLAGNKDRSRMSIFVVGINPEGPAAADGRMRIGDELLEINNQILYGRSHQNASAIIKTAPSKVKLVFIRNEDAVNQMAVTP
MAGI3_3, Q5TCQ9, sequence (Q5TCQ9 572-655): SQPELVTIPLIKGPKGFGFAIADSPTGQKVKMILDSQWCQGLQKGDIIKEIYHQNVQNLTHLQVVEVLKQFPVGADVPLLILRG

Turning to QSARYRDTEL [TJP2, Q9UDY2], the pKd result in experiment [1], in experiment [2], in experiment [3], in experiment [4], in experiment [5] and in experiment [6] was “below the threshold” in each case. Further, the pKd result in [7], in experiment [8], in experiment [9], in experiment [10], in [11] and in [12] was “below the threshold” in each case. The pKd entry in experiment [13], in experiment [14], in [15], in experiment [16], in experiment [17] and in experiment [18] was “below the threshold” throughout. Further, the pKd result in [19], in [20], in experiment [21], in experiment [22], in experiment [23] and in experiment [24] was “below the threshold” each time.
On to STLTIFETAL [ABCC4, O15439], for which the pKd entry in experiment [1], in [2], in experiment [3], in experiment [4], in experiment [5] and in [6] was “below the threshold” throughout. Moreover, the negative-log Kd (pKd) was 4.18 in experiment [7]; “below the threshold” in [8]; 4.06 in [9]; “below the threshold” in experiment [10]; “below the threshold” in experiment [11]; “below the threshold” in [12]. In addition, the pKd result in experiment [13] was “below the threshold”; in experiment [14], 4.08; in experiment [15] it was “below the threshold”; in experiment [16] it was “below the threshold”; in experiment [17], “below the threshold”; in experiment [18], “below the threshold”. Further, the pKd result in experiment [19] was “below the threshold”; in experiment [20], “below the threshold”; in experiment [21], “below the threshold”; in experiment [22], 4.29; in experiment [23], 4.49; in [24] it was “below the threshold”.

As usually defined, the pKd is the negative decadic logarithm of the Kd, by convention in mol/L.

Values taken from publication PMC9482650, “Quantitative fragmentomics allow affinity mapping of interactomes” (Nature Communications, 2022).
